Here are results for 41 sequences from the nanobody polyreactivity screen of Harvey et al. (2022).

The data set is described as follows: yeast display, Sf9 membrane polyspecificity reagent, FACS + sequencing; frameworks hold sequencing errors. In short, it runs like this:
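Genes from sorted yeast were amplified by colony PCR, read by MiSeq 2 × 250 sequencing and filtered on CDR length. These cells carried a synthetic nanobody library in Saccharomyces cerevisiae BJ5465 and were sorted by FACS into low and high (top ~1%) gates on anti-HA and streptavidin fluorescence. Polyreactivity is labelled according to the gate of origin.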
For the sequence “QVQLVESGGGLVQAGGSLRLSCAASGGTLRYYVMGWYRQAPGKDRELVAAISWAGDSTYYADSVKGRFTISRDNAKNTVYLQMNSLKPEDTAVYYCAATYYLTYYSGQANHGYDYWGQGTQVTVSS”, the “polyreactivity (PSR sort gate)” value is given as “low polyreactivity”. The value for “QVQLVESGGGLVQAGGSLRLSCAASGGTLYYNAMGWYRQAPGKERELVAAISGRGGRTYYADSVKGRFTISRDNAKNTVYLQMNSLKPEDTAVYYFARVTNDHYDYWGQGTQVTVSS” was “high polyreactivity”; that for “QVQLVESGGGLVQAGGSLRLSCAASGGTSYAYTMGWYRQAPGKERELVAAISGSTGSTYYADSVKGRFTISRDNAKNTVYLQMNSLKPEDTAVYYCALLVGHNYWGQGTQVTVSS” was “low polyreactivity”; that for “QVQLVESGGGLVQAGGSLRLSCAASGGWYRQAPGKERELVAAISWRDSSTYYADSVKGRFTISRDNAKNTVYLQMNSLKPEDTAVYYCAVRAYPWPEYYYWGQGTQVTVSS” was “low polyreactivity”. Under “QVQLVESGGGLVQAGGSLRLSCAASGHIFANYAMGWYRQAPGKERELVAAIRWSASRTYYADSVKGRFTISRDYAKNTVFLQLNSLKPEDTAVYYCAATIYTFWAYYYDYWGQGTQVTVSS” stands “high polyreactivity”; under “QVQLVESGGGLVQAGGSLRLSCAASGHIFFYYTMGWYRQAPGKERELVAGITIGGSTNYADSVKGRFTISRDNAKNTVYLEMNSLKPEDTAVYYCNVVKYVFFYSYWEYYYWGQGTQVTVSS”, “low polyreactivity”; under “QVQLVESGGGLVQAGGSLRLSCAASGHIFFYYTMGWYSPAPGKERELVAGITIGGSTNYADSVKGRFTISRDNAKNTVYLQMNSLKPEDTAVYYCNVVKYVYIYSYWEYYYWGQGTQVNVSS”, “low polyreactivity”. The value for “QVQLVESGGGLVQAGGSLRLSCAASGHIFGGNAMGWYRQAPGKEMELVATISSGGSTHYADSVKGRFTISRDNAKNTVYLQMHSLKPEDTAVYYCAARRSYRATAYKYDYWGQGTHVTVSS” was “low polyreactivity”; that for “QVQLVESGGGLVQAGGSLRLSCAASGHIFSRYAMGWFRQAPGKERDLVATITNRGGSTYYADSVKGRFTISRDNAKNSVYLQMNSLKPEDTAVYYCARRTKSYVSHPLDYWGQGTQVTVSS” was “high polyreactivity”; that for “QVQLVESGGGLVQAGGSLRLSCAASGHTFRKYAMGWYRQAPGKERELVASITWSDGITYYADSVKGRFTISRDNAKNTVYLQMNSLKPEDTAVYYCATDLVQSEYDYWGQGTQVTVSS” was “low polyreactivity”. For the sequence “QVQLVESGGGLVQAGGSLRLSCAASGHTFSSYAMGWYRQAPGKERELVAAISVSATRTYYADSVKGRFTISRDNAKNTVYLQMNSLKPEDTAVYYCAARPVQFTYGYWGQGTQVTVSS”, the “polyreactivity (PSR sort gate)” value is “high polyreactivity”. The value for “QVQLVESGGGLVQAGGSLRLSCAASGIFEWNAMGWYRQAPRTERELVAAISNSGGSTYYADSVKGRFTISRDNAKNTVYLQMNSLKPEDNAVYYCAARSKTPAWWYWNSYYIRDYWGQATQVTVSS” was “high polyreactivity”; that for “QVQLVESGGGLVQAGGSLRLSCAASGIFGWYAMGWYRQARGKEREFVATINWSGGRTYYADSVKGRFTISRDNAKNTVYVQMNSLKPEDTAVYYCAPENYASQYDYWGQGTQVTVSS” was “low polyreactivity”. Consider “QVQLVESGGGLVQAGGSLRLSCAASGIFPYNAMGWYRQAPGKERELVAAITWSDGSTYYADSVKGRFTISRDNAKNTVYLQMNSLKPEDTAVYYCNTYRNPAEDYWGQGTQVTVSS”, for which the “polyreactivity (PSR sort gate)” value was “low polyreactivity”. Under “QVQLVESGGGLVQAGGSLRLSCAASGIFRLNAMGWYRQAPGKERELVAAISWSGGSTRYADSVKGRFTISRDNAKNTVYLQMNSLKPEDTAVYYCAKKLRGWHTIITDYDYWGLGTQVTVSS” stands “low polyreactivity”; under “QVQLVESGGGLVQAGGSLRLSCAASGIFTYNAMGWYRQAPGKERELVASITRGGSTNYADSVKGRFTISRDNAKNTVYLQMNSLKPEDTAVYYCAARVRVYSGWLYNYWGQGTQVTVSS”, “high polyreactivity”. The value for “QVQLVESGGGLVQAGGSLRLSCAASGIFVDNAMGWYRQAPGKERELVAAISGSGGSTFYADSVKGRFTISRDNAKNTVYLQLNSLKPEDTAVYYCNADVYPHPAFFVGHDYWGHGTQVTVSS” was “low polyreactivity”.

Regarding “QVQLVESGGGLVQAGGSLRLSCAASGIFVGYTMGWYRQAPGKERELVAAIRWTDGSTYYADSVKGRFTISRDNAKNTVYLQMISLKPEDTAVYYCAADSHDPARYYYGDEFEDEYWGQGTQVTVSS”, the “polyreactivity (PSR sort gate)” value is “low polyreactivity”. As for “QVQLVESGGGLVQAGGSLRLSCAASGIFYVYAMGWYRQAPGKERELVAAISSDGSTYYADSVKGRFTISRDNAKNTVYLQMNSLKPEDTAVYYCAAVWYWTQDYDYWGQGTQVTVSS”, the “polyreactivity (PSR sort gate)” value was “low polyreactivity”. As to “QVQLVESGGGLVQAGGSLRLSCAASGIIFAFYAMGWYRQAPGKERELVATISKSGGRTYYADSVKGRFTISRDNAKNTVYLQMNSLKPEDTAVYYCAARIQYAFGADYYWGQGTQVTVSS”, the “polyreactivity (PSR sort gate)” value is listed as “low polyreactivity”. Under “QVQLVESGGGLVQAGGSLRLSCAASGIIFAHNAMGWYRQAPGKERELVAAISKRGGSTYYADSVKGRFTISLDNAKNTVYLQMNSLKPEDTAVYYCAAASFTWVSRGYDYWGQGTQVTVAS” stands “high polyreactivity”; under “QVQLVESGGGLVQAGGSLRLSCAASGIIFALYAMGWYRQAPGKERELVATITYSGGSTYYADSVKGRFTISRDNAKNTVYLQMNSLKPEDTAVYYCAADYYILRWRQTNDYWGQGTQVTVSS”, “low polyreactivity”. The value for “QVQLVESGGGLVQAGGSLRLSCAASGIIFARNGMGWYRPAPGKERELVAAISSGGRKYYADSVKGRFTISRDNAKNTVYLQMNSLKPEDTAVYYCNALGWYLRGDYWGQGTQVTVSS” was “high polyreactivity”.

In the case of “QVQLVESGGGLVQAGGSLRLSCAASGIIFARNTMGWYRQAPGKERELVAAISTRGTTSYYADSVKGRFTISRDNAKYTVYLQMNSLKPEDTAVYYCAAVRVHTDRYNYWGQGTQVTVSS”, the “polyreactivity (PSR sort gate)” value was “high polyreactivity”. Regarding “QVQLVESGGGLVQAGGSLRLSCAASGIIFARYAMGWYRQAPGKERELVAAINWSGGDTYYADSVKGRFTISRDNAKNTVYLEMNSLIPEDTAVYYCSKVISYLVVLPRTERYEGDYWGQGTQVSVSS”, the “polyreactivity (PSR sort gate)” value is listed as “low polyreactivity”.

On to “QVQLVESGGGLVQAGGSLRLSCAASGIIFASNAMGWYRQTPGKERELVAAISGSGGRTYYADSVKGRFTISRDNAKNTVYLQMNSLKPDDTAVYYGAAARANNYDYWGQGTQVTVSS”, for which the “polyreactivity (PSR sort gate)” value is “high polyreactivity”.

In the case of “QVQLVESGGGLVQAGGSLRLSCAASGIIFASNARGWYIQAPGKERELVASINRRGSSTYYADSVKGRFTISRDNAKNTVYLQMNSLKPEDTAVYYCAARAFNSGLGYTRYDYWGQGTQVTVSS”, the “polyreactivity (PSR sort gate)” value is listed as “high polyreactivity”. The value for “QVQLVESGGGLVQAGGSLRLSCAASGIIFASNGMGWYRQAPGKERELVAAISSGGSTNYADSVKGLFTISRDHAKNTVYLQMNSLKPEDTAVYYCAADRWDRDYDYWGQGTQVTVSS” was “low polyreactivity”; that for “QVQLVESGGGLVQAGGSLRLSCAASGIIFASYAMGWYRPAPGKERELVATISRTGGSTRYADSVKGRFTISRDNAKNTVYLQMNSLKPEDTAVYYCAARNPAYDRRYGYWGQGTQVTVSS” was “high polyreactivity”. For “QVQLVESGGGLVQAGGSLRLSCAASGIIFATNSMGWYRQAPGKERELVAAITSDSTNYADSVKGRFTISRDNAKNTVYLQMNSLKAEDTAVYYCAADLITDYEESDYWGQGTQVTVSS”, the “polyreactivity (PSR sort gate)” value is listed as “low polyreactivity”.

Turning to “QVQLVESGGGLVQAGGSLRLSCAASGIIFAWYAMGWYRQAPGKERELVAAISYSGGTTYYADSVKGRFTISRDIAKNTVYLQMNSLKPEDTEVYYCAGRLHLFFSYDYWGQGTLVTVSS”, the “polyreactivity (PSR sort gate)” value is listed as “low polyreactivity”. Under “QVQLVESGGGLVQAGGSLRLSCAASGIIFAWYAMGWYRQAPGKERELVAAITSRGGSRTFYADSVKGRFTISRDNAKNTVYLQMNSLKPEDTAVYYCAVVTRAHPEDYWGQGTQVTVSS” stands “high polyreactivity”; under “QVQLVESGGGLVQAGGSLRLSCAASGIIFAYNAMGWYRQAPGKERELVAAISSGGRTNYADSVKGRFTISRDNAKNTVYLQMNSLKPEDTAVYYCAARPRYYWLGLKIYGYDYWGHGTQVTVSS”, “high polyreactivity”. Under “QVQLVESGGGLVQAGGSLRLSCAASGIIFAYNAMGWYRQAPVKERELVAAISVIGGTTYYADSVKGRFTISRDNAKITVYLQMNSLKPEDTAVYYCAVDSVQYGGGYERLHDLYYWGQGTQVTVSS” stands “low polyreactivity”; under “QVQLVESGGGLVQAGGSLRLSCAASGIIFAYYAMGWYRQAPGKERELVAAIDYSGASTYYADSVKGRFTISRDNAKNTVYLQMNSLKPEDTAVYYCNADDFGYASYEYWGQGTQVTVSS”, “low polyreactivity”.

On to “QVQLVESGGGLVQAGGSLRLSCAASGIIFAYYAMGWYRQAPGKERELVAAISDNGGRTFYADSVKGRFTISRDNAKNTVYLQMNSLKPEDTAVYYCAAVVYSEYYYWGQGTQVTVSS”, for which the “polyreactivity (PSR sort gate)” value is listed as “low polyreactivity”.

For the sequence “QVQLVESGGGLVQAGGSLRLSCAASGIIFAYYAMGWYRQAPGKERELVGTNYADSVKGRFTISRDNAKNTVFLQMNSLKPEDTAVYYCAVQGYGEYDYWGQGTQVTVSS”, the “polyreactivity (PSR sort gate)” value is “low polyreactivity”. Take “QVQLVESGGGLVQAGGSLRLSCAASGIIFDDNTMGWYRQAPGKERELVAAISSSGGSTYYADSVKGRFTISRDNAKNTVYLQMNSLKPEDTAVYYCAAAVYYTYPYIVYRNYPEFDYWGQGTQVTVSS”: the “polyreactivity (PSR sort gate)” value is recorded as “low polyreactivity”. Under “QVQLVESGGGLVQAGGSLRLSCAASGIIFDDYAMGWYRQAPGKERELVAAINSNGGTTYYADSVKGRFTISRDNAKNTVYLHMNSLKPEDTAVYYCAKAYPGTYREYDYWGQGTQVTVSS” stands “high polyreactivity”; under “QVQLVESGGGLVQAGGSLRLSCAASGIIFDFYAMGGYRQAPGKEREFVAAINSGSGSTYYADSVKGRFTISRDNAKNTVYLQMNSLKPVDTAVYYCAADGLSATLTWYSYDYWGQGTQVTVSS”, “low polyreactivity”; under “QVQLVESGGGLVQAGGSLRLSCAASGIIFDFYAMGWYRQAPGKERELVAAINSGSGSTYYADSVKGRFTISRDNAKNTVYLQMNSLKPEDTAVYYCAADGLSATLTWYSYDYWGQGTQVTVSS”, “low polyreactivity”.
